Results as given in publication PMC5428233, “Cross-beta nanostructures based on dinaphthylalanine Gd-conjugates loaded with doxorubicin” (Scientific Reports, 2017).
Where a SMILES comes first, the peptide text is derived from it. [ ]: non-standard residue; d: D form. The star is where a group is joined. DOTA = O=C(O)CN1CCN(CC(=O)O)CCN(CC(=O)*)CCN(CC(=O)O)CC1; 2Nal = N[C@@H](Cc1ccc2ccccc2c1)C(=O)O; PEG6 = NCCOCCOCCOCCOCCOCCOCCC(=O)O

Key:
[1] = water, temperature below 5 °C
[2] = water
[3] = Transmission electron microscopy of self-assembled conjugates; assay type: physicochemical; settings: 5.0 mg/mL solution dried on grid, phosphotungstic acid stain
Procedure: Self-assembled peptide conjugate at 5.0 mg/mL, as free base or as metal complex, was initially characterized using TEM. […] The presence of a diffraction pattern both in SAXS and in WAXS is fingerprint of a hierarchical organization of the molecules in fibers from the atomic to the nanoscale.
TEM images were acquired by LaMest (Pozzuoli, Italy) with a FEI TECNAI G12 Spirit-Twin microscope (LaB6 source) endowed of a bottom mounted FEI Eagle-4k CCD camera (Eindhoven, The Netherlands), working at 120 kV.

[4] = Water proton relaxation measurements / NMRD profiles; assay type: physicochemical; settings: 298 K
From the text: The paramagnetic relaxivity (r1p) of Gd (III) complexes is given by:1 r1p∝1/T1MH=Kf(τR) where K is a constant related to the strength of the dipolar interaction between the protons and the electronic magnetic moment, and τR is the correlation time associated with the reorientation of the Gd-H magnetic vector. This means that slowly moving high molecular weight systems are endowed with higher relaxivity than rapidly reorienting low molecular weight ones. In the case of self assembling Gd-containing systems, the extent of aggregation may be evaluated through the measure of the water proton longitudinal relaxation rate of its aqueous solution. In Fig. 8 are reported the NMRD (Nuclear Magnetic Resonance Dispersion) profiles of Gd-2Nal2 acquired at 21.5 MHz (0.5 T) and 298 K as a function of the complex concentration. […] At concentrations higher than 10–15 mg/mL the relaxivity assumes an almost stable value which corresponds to the system in the completely aggregated form. By analyzing the profile of the relaxivity data as a function of the applied field strength (NMRD - Nuclear Magnetic Relaxation Dispersion) it is possible to obtain an accurate determination of the reorientational correlation time (τR)[16], that is strictly related to the molecular size of the investigated system. NMRD profiles were acquired below (black circles) and above (white ones) the CAC values determined by ANS titration and ^1HNMR. […] Data were analyzed using the Solomon-Bloembergen-Morgan model, [18], considering one water molecule in the inner coordination sphere (q = 1) and fixing the exchange lifetime (τM) to a reliable value ([…]) on the basis of those previously reported for mono-amido DOTA derivatives[19]–[22]. The quantitative analysis of the NMRD profile of the aggregated form was not satisfactory when the simple inner- outer-sphere model was used, so the Lipari-Szabo approach was used for the description of the rotational dynamics. This model allows one to take into account the presence ofa certain degree of internal rotation superimposed on the overall tumbling motion, [24]. These two types ofmotion, a relatively fast local rotation of the coordination cage about the linker to the peptide scaffold superimposed on the global reorientation of the system, are characterized by different correlation times: τR ^l and τR ^g, respectively. The degree of correlation between global and local rotations is given by the parameter S^2, which takes values between 0 (completely independent motions) and 1 (entirely correlated motions).
Measure of R1 (longitudinal water proton relaxation rates) of Gd-2Nal2 were carried out on a Stelar Spinmaster spectrometer (Pavia, Italy) operating at 0.5 T which corresponds to 21.5 MHz Proton Larmor Frequency. R1 (1/T1) values were measured at 298 K by mean of the standard inversion-recovery technique. For the measure of the proton 1/T1 NMRD (Nuclear Magnetic Resonance Dispersion) profiles, a fast field-cycling Stelar relaxometer, operating over a continuum of magnetic field strengths from 0.00024 to 0.47 T (corresponding to 0.01–20 MHz proton Larmor frequencies) was used. The temperature was set at 298 K. The relaxometer is computer controlled and the absolute uncertainty is 1/T1 ± 1%. Additional data points were obtained on a Stelar Spinmaster spectrometer coupled to an electromagnet tunable at different Larmor Frequencies between 21.5 and 70 MHz. Experimental temperature control was obtained with an air-flow heater (Stelar VTC-91) endowed of a copper constantan thermocouple (uncertainty 0.1 °C). A previously reported relaxometric method[39] was used for the determination of the concentrations of the solutions used for the relaxometric characterization. The conventional Solomon-Bloembergen-Morgan theory was used for fitting of experimental data.

[5] = Critical aggregation concentration (CAC) by ANS fluorescence titration; assay type: physicochemical; settings: ANS 20 μM titrated with conjugate, emission at 470 nm, graphical break-point (Figure S3)
Procedure: (§1) Self-organization of the peptide conjugates at the atomic level was further characterized also in solution with fluorescence, UV-Vis, ^1HNMR, CD and FTIR spectroscopies. […] From ispection of Fig. 1b, the typical emission spectrum of the 2-naphthyl group with three maxima at 325, 340 and 355 nm, respectively, can be detected.
(§2) The determination of CAC (critical aggregate concentration) values was determined as previously described[6] by the titration of the fluorescent probe ANS (8-anilino-1-naphthalene sulfonic acid ammonium salt)[28], [29] with the peptide conjugates[30].

[6] = Self-aggregation by intrinsic naphthyl fluorescence (intensity decrease, excimer peak); assay type: physicochemical; settings: water, room temperature, excitation 280 nm
Procedure: as §1, §2

[7] = Congo Red spectroscopic (UV-Vis) assay for amyloid-like fibrils; assay type: physicochemical; settings: 30 min at room temperature
Procedure: The high tendency of Gd-2Nal2 to self-aggregate in amyloid-like fibrillary nanostructures in solution was confirmed by Congo Red (CR) staining assay. CR is a well-known azoic dye, used as indicator of the occurrence of amyloid like fibrils. […] When incubated with fibrillary aggregates, its spectral profile changes and a shift of the CR band from 490 to 540 nm is expected. In our experiment, depicted in Fig. 3b, CR UV-Vis maximum undergoes a clear shift after incubation with Gd-2Nal2 at 2.5 mg/mL. Instead, any variation or a slight shift can be evidenced for CR incubated with 0.1 and 1.0 mg/mL, respectively.
Congo Red (CR) UV-Vis assay was carried out on aforementioned spectrophotometer as previously described. Briefly, 5, 50 and 125 μL of di-naphthylalanine stock solution (20 mg/mL) were added to a CR solution (12, 5 μM) prepared immediately before to use. The solutions containing peptide conjugate incubated with CR were left at room temperature for 30 min and then their UV-Vis spectra were recorded between 400 and 700 nm. The spectrum of CR alone at the same concentration was also recorded in the this spectral region.

[8] = Doxorubicin loading and leakage by fluorescence spectroscopy; assay type: physicochemical
From the text: In order to prepare a potential theranostic agent, we assayed to incorporate cytotoxic doxorubicin (DOX) model drug in the Gd-2Nal2 paramagnetic nanostructures. DOX is an established anticancer agent clinically effective for the treatment of many cancertypes (breast and ovarian cancers). The incorporation and release of DOX into nanostructures was estimated by fluorescence spectroscopy (Figures S7 and S8). The addition of increasing amounts of the peptide conjugate to the DOX solution causes a progressive decrease of the fluorescence intensity of DOX (Figure S7a). […] By plotting the fluorescence intensity in the maximum at 590 nm as function of the Gd-2Nal2 concentration (Figure S7b) we estimated that gDrug/gPeptide is 0.028 (∼60 μg of DOX for ∼2.0 mg of peptide). […]
A DOX solution (1 · 10^−4 M) was placed in the cuvette and titrated with small amount of Gd-2Nal2 peptide conjugate at 50 mg/mL. The fluorescence of each sample was monitored on Jasco Model FP-750 spectroflurophotometer as above described. […] At the end of the titration the DOX filled Gd-2Nal2 aggregates were 10-fold diluted and the DOX fluorescence was monitored up to 72 h. […]
Figure S7: A) Fluorescence spectra of 1·10^-4 M DOX (58 μg/mL) solution alone and after the addition of growing amounts of Gd-2Nal2 peptide conjugate (from 0.25 to 10.0 mg/mL). […]

NC(=O)[C@H](Cc1ccc2ccccc2c1)NC(=O)[C@H](Cc1ccc2ccccc2c1)NC(=O)CCOCCOCCOCCOCCOCCOCCNC(=O)CN1CCN(CC(=O)O)CCN(CC(=O)O)CCN(CC(=O)O)CC1 [Gd-2Nal2, Gd-DOTA-L6-(2Nal)2] ({DOTA-PEG6}-[2Nal]-[2Nal]-NH2)
concentration at which fast hydrogel formation occurs [1]: 20000 µg/mL | solubility [2]: ≥ 50 mg/mL | supramolecular aggregation / morphology in TEM images [3]: long fibrillary nanostructures | aggregation state from NMRD profile and τR ([4]; 1 mg/mL): monomeric state | aggregation state from NMRD profile and τR ([4]; 25.0 mg/mL (high concentration)): formation of aggregates | concentration above which relaxivity assumes an almost stable value (completely aggregated form) ([4]; 21.5 MHz (0.5 T), water): 10000 to 15000 µg/mL | concentration at which self-aggregation starts (enhancement in relaxivity) ([4]; 21.5 MHz (0.5 T), water): ca. 1.0 mg/mL | r1p (longitudinal proton relaxivity) ([4]; complex at 1 mg/mL, aqueous solution): 7.3 mM⁻¹ s⁻¹ | critical aggregation concentration (CAC) [5]: ~0.86 mg/mL | concentration at which self-aggregation begins (decrease of fluorescence intensity) [6]: ~75 µM | concentration of appearance of the excimer peak (380-430 nm) / formation of stable aggregates [6]: ~1000 µg/mL | concentration at which self-aggregation begins (decrease of fluorescence intensity) ([6]; 0.025-20.0 mg/mL range): ~100 µg/mL | shift of Congo Red UV-Vis maximum (490 to 540 nm expected for fibrils) ([7]; conjugate at 1.0 mg/mL): slight shift | shift of Congo Red UV-Vis maximum (490 to 540 nm expected for fibrils) ([7]; conjugate at 2.5 mg/mL): clear shift | doxorubicin loading, gDrug/gPeptide ([8]; DOX 1·10^−4 M titrated with Gd-2Nal2 (50 mg/mL stock), fluorescence at 590 nm, excitation 480 nm): 0.028 | DOX leakage (drug released) from the peptide aggregate ([8]; DOX filled aggregates 10-fold diluted, fluorescence monitored, after 72 h): ~6%
